According to publication PMC9280192:

Molecular target: IRSp53 (insulin receptor substrate protein 53), full-length
Assay: SEC-MALS

stoichiometry N: 2
Substance: IRSp53 (insulin receptor substrate protein 53), full-length (natural protein)
